Results reported in paper PMC11061317 (Cell Research, 2024).
Ends that are not written are not given here.

What was measured:
[1] = target: T1, bacterially purified GST-tagged Rheb (UniProt Q15382 1-184); test: pull-down; recombinant Rheb (1 ug) and biotinylated C-tail peptide at a 1:5 molar ratio in 300 uL NETN buffer (40 mM Tris-HCl, 100 mM NaCl, 0.5% NP-40, 1 mM EDTA, 10% glycerol) with 15 uL streptavidin beads, 2 h at 4 °C; SDS-PAGE and immunoblot; conditions: both partners purified
T1 construct: Rheb, small G protein; The real-time BODIPY assays written under functional used His-tagged Rheb from E. coli instead of the GST-tagged protein; also called GST-Rheb; recombinant GST-tagged WT Rheb; source: E. coli BL21 (DE3), purified (Glutathione Sepharose 4B); not shown: GST, N-terminal, kept

[2] = target: T2, bacterially purified Rheb-G63V (UniProt Q15382 1-184, G63V); test: as above; conditions: both partners purified
T2 construct: source: E. coli BL21 (DE3), purified
T2 sequence (Q15382 whole entry G63V): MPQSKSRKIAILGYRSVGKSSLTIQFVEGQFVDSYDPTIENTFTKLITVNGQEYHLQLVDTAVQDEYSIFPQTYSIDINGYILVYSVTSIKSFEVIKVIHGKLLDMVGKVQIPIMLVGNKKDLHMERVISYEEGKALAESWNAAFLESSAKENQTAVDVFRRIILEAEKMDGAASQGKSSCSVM

T1 sequence (Q15382 whole entry): as the sequence (Q15382 whole entry G63V) above, with V63G counted along it

Binder | binding result [1] | binding result [2]
HKGPTISLTQIV (also: biotinylated, position not given here, the last 12 residues of ATP6AP1; also called C12; synthetic C12 peptide; source: synthetic peptide (Genscript ProBio)) [biotinylated synthetic peptide of the ATP6AP1 C-tail (12)] | binds | 
TYGLHMILSLKTMDRFDDHKGPTISLTQIV (also: biotinylated, position not given here, ATP6AP1 C-terminal 30 amino acids (C-tail), aa 441-470; also called synthetic C-tail peptide; WT C-tail peptide; source: synthetic peptide (Genscript ProBio)) [biotinylated synthetic peptide of the ATP6AP1 C-tail (30)] | binds | binds
